Data set [1] deals with HeLa Kyoto. Description: solubility in G1/S (NP-40 vs SDS abundance) (log2 ratio); higher = more soluble. The conditions noted are these: cell cycle stage: G1/S.
For data set [2], the system named is HeLa Kyoto. Description: melting temperature (median over replicates), in situ; higher = more thermally stable.
The test system of data set [3] is HeLa Kyoto. Description: solubility change mitosis vs G1/S (difference of NP-40 vs SDS log2 ratios) (log2 ratio difference); higher = more soluble in mitosis.
For data set [4], the system named is HeLa Kyoto. Description: thermal stability score vs G1/S (z-score of summed log2 fold changes over temperatures); higher = more thermally stable than in G1/S.
The mark [5] stands for this setting: cell cycle stage: early G1 (4.5 h after nocodazole release).

These results are taken from the supplement of paper PMC5998384.
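Wherever melting temperature (median over replicates), in situ is given: HeLa Kyoto cells synchronized by double thymidine or nocodazole block, proteins quantified by TMT10plex mass spectrometry, three independent biological replicates.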
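Wherever solubility change mitosis vs G1/S (difference of NP-40 vs SDS log2 ratios) is given: synchronized HeLa Kyoto cells (double thymidine block for G1/S, nocodazole release for mitosis), protein amounts in NP-40 versus SDS lysates quantified by mass spectrometry, three biological replicates.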
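Wherever solubility in G1/S (NP-40 vs SDS abundance) is given: HeLa Kyoto cells arrested at G1/S by double thymidine block, proteins quantified by TMT10plex mass spectrometry in mild NP-40 versus SDS extracts, three biological replicates.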
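Wherever thermal stability score vs G1/S (z-score of summed log2 fold changes over temperatures) is given: synchronized HeLa Kyoto cells, proteins quantified by TMT10plex mass spectrometry, three biological replicates, mitosis taken 0.5 h after nocodazole release, G1/S directly after double thymidine block.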

Regarding “MPSDLAKKKAAKKKEAAKARQRPRKGHEENGDVVTEPQVAEKNEANGRETTEVDLLTKELEDFEMKKAAARAVTGVLASHPNSTDVHIINLSLTFHGQELLSDTKLELNSGRRYGLIGLNGIGKSMLLSAIGKREVPIPEHIDIYHLTREMPPSDKTPLHCVMEVDTERAMLEKEAERLAHEDAECEKLMELYERLEELDADKAEMRASRILHGLGFTPAMQRKKLKDFSGGWRMRVALARALFIRPFMLLLDEPTNHLDLDACVWLEEELKTFKRILVLVSHSQDFLNGVCTNIIHMHNKKLKYYTGNYDQYVKTRLELEENQMKRFHWEQDQIAHMKNYIARFGHGSAKLARQAQSKEKTLQKMMASGLTERVVSDKTLSFYFPPCGKIPPPVIMVQNVSFKYTKDGPCIYNNLEFGIDLDTRVALVGPNGAGKSTLLKLLTGELLPTDGMIRKHSHVKIGRYHQHLQEQLDLDLSPLEYMMKCYPEIKEKEEMRKIIGRYGLTGKQQVSPIRNLSDGQKCRVCLAWLAWQNPHMLFLDEPTNHLDIETIDALADAINEFEGGMMLVSHDFRLIQQVAQEIWVCEKQTITKWPGDILAYKEHLKSKLVDEEPQLTKRTHNV [ABCF2]”, the “solubility in G1/S (log2)” value in the data set on HeLa Kyoto [1] was -0.296. Further, the melting temperature in the data set with HeLa Kyoto [2] (cell cycle stage: G1/S) amounted to 51.8 °C; in the data set on HeLa Kyoto [2] (cell cycle stage: mitosis), 51.2 °C. The “solubility change mitosis (log2)” value with HeLa Kyoto [3] came to 0.116. Moreover, the thermal stability score with HeLa Kyoto [4] (setting [5]) came to 1.11; with HeLa Kyoto [4] (cell cycle stage: mitosis), 0.19.

As for “MPSLLVLTFSPCVLLGWALLAGGTGGGGVGGGGGGAGIGGGRQEREALPPQKIEVLVLLPQDDSYLFSLTRVRPAIEYALRSVEGNGTGRRLLPPGTRFQVAYEDSDCGNRALFSLVDRVAAARGAKPDLILGPVCEYAAAPVARLASHWDLPMLSAGALAAGFQHKDSEYSHLTRVAPAYAKMGEMMLALFRHHHWSRAALVYSDDKLERNCYFTLEGVHEVFQEEGLHTSIYSFDETKDLDLEDIVRNIQASERVVIMCASSDTIRSIMLVAHRHGMTSGDYAFFNIELFNSSSYGDGSWKRGDKHDFEAKQAYSSLQTVTLLRTVKPEFEKFSMEVKSSVEKQGLNMEDYVNMFVEGFHDAILLYVLALHEVLRAGYSKKDGGKIIQQTWNRTFEGIAGQVSIDANGDRYGDFSVIAMTDVEAGTQEVIGDYFGKEGRFEMRPNVKYPWGPLKLRIDENRIVEHTNSSPCKSSGGLEESAVTGIVVGALLGAGLLMAFYFFRKKYRITIERRTQQEESNLGKHRELREDSIRSHFSVA [NPR3]”, the “solubility in G1/S (log2)” value in the data set with HeLa Kyoto [1] amounted to 0.0598. Also, the values for the melting temperature with HeLa Kyoto [2] (cell cycle stage: G1/S) and in the data set on HeLa Kyoto [2] (cell cycle stage: mitosis) were 53.9 °C and 54.4 °C, respectively. The “solubility change mitosis (log2)” value in the data set on HeLa Kyoto [3] is -0.0686. Also, the values for the thermal stability score with HeLa Kyoto [4] (setting [5]) and with HeLa Kyoto [4] (cell cycle stage: mitosis) were -4.69 and -4.35, respectively.

For “MPSRKFADGEVVRGRWPGSSLYYEVEILSHDSTSQLYTVKYKDGTELELKENDIKPLTSFRQRKGGSTSSSPSRRRGSRSRSRSRSPGRPPKSARRSASASHQADIKEARREVEVKLTPLILKPFGNSISRYNGEPEHIERNDAPHKNTQEKFSLSQESSYIATQYSLRPRREEVKLKEIDSKEEKYVAKELAVRTFEVTPIRAKDLEFGGVPGVFLIMFGLPVFLFLLLLMCKQKDPSLLNFPPPLPALYELWETRVFGVYLLWFLIQVLFYLLPIGKVVEGTPLIDGRRLKYRLNGFYAFILTSAVIGTSLFQGVEFHYVYSHFLQFALAATVFCVVLSVYLYMRSLKAPRNDLSPASSGNAVYDFFIGRELNPRIGTFDLKYFCELRPGLIGWVVINLVMLLAEMKIQDRAVPSLAMILVNSFQLLYVVDALWNEEALLTTMDIIHDGFGFMLAFGDLVWVPFIYSFQAFYLVSHPNEVSWPMASLIIVLKLCGYVIFRGANSQKNAFRKNPSDPKLAHLKTIHTSTGKNLLVSGWWGFVRHPNYLGDLIMALAWSLPCGFNHILPYFYIIYFTMLLVHREARDEYHCKKKYGVAWEKYCQRVPYRIFPYIY [LBR]”, the “solubility in G1/S (log2)” value in the data set with HeLa Kyoto [1] is -0.228. Also, the melting temperature with HeLa Kyoto [2] (cell cycle stage: G1/S) was found to be 53.1 °C; in the data set on HeLa Kyoto [2] (cell cycle stage: mitosis), 52.5 °C. Moreover, the “solubility change mitosis (log2)” value with HeLa Kyoto [3] is -0.0634. Further, the thermal stability score is -0.47 in the data set with HeLa Kyoto [4] (setting [5]) and -1.19 with HeLa Kyoto [4] (cell cycle stage: mitosis).

As for “MPTVEELYRNYGILADATEQVGQHKDAYQVILDGVKGGTKEKRLAAQFIPKFFKHFPELADSAINAQLDLCEDEDVSIRRQAIKELPQFATGENLPRVADILTQLLQTDDSAEFNLVNNALLSIFKMDAKGTLGGLFSQILQGEDIVRERAIKFLSTKLKTLPDEVLTKEVEELILTESKKVLEDVTGEEFVLFMKILSGLKSLQTVSGRQQLVELVAEQADLEQTFNPSDPDCVDRLLQCTRQAVPLFSKNVHSTRFVTYFCEQVLPNLGTLTTPVEGLDIQLEVLKLLAEMSSFCGDMEKLETNLRKLFDKLLEYMPLPPEEAENGENAGNEEPKLQFSYVECLLYSFHQLGRKLPDFLTAKLNAEKLKDFKIRLQYFARGLQVYIRQLRLALQGKTGEALKTEENKIKVVALKITNNINVLIKDLFHIPPSYKSTVTLSWKPVQKVEIGQKRASEDTTSGSPPKKSSAGPKRDARQIYNPPSGKYSSNLGNFNYEQRGAFRGSRGGRGWGTRGNRSRGRLY [API5]”, the “solubility in G1/S (log2)” value in the data set with HeLa Kyoto [1] was determined as 0.323. Moreover, the melting temperature in the data set with HeLa Kyoto [2] (cell cycle stage: G1/S) was determined as 53.7 °C; in the data set on HeLa Kyoto [2] (cell cycle stage: mitosis) it was 52.8 °C. For the same sequence, the “solubility change mitosis (log2)” value with HeLa Kyoto [3] was determined as 0.0442. The results for the thermal stability score in the data set on HeLa Kyoto [4] (setting [5]) and with HeLa Kyoto [4] (cell cycle stage: mitosis) were 1.42 and 1.11, respectively.

Consider “MPVGGLLPLFSSPAGGVLGGGLGGGGGRKGSGPAALRLTEKFVLLLVFSAFITLCFGAIFFLPDSSKLLSGVLFHSSPALQPAADHKPGPGARAEDAAEGRARRREEGAPGDPEAALEDNLARIRENHERALREAKETLQKLPEEIQRDILLEKKKVAQDQLRDKAPFRGLPPVDFVPPIGVESREPADAAIREKRAKIKEMMKHAWNNYKGYAWGLNELKPISKGGHSSSLFGNIKGATIVDALDTLFIMEMKHEFEEAKSWVEENLDFNVNAEISVFEVNIRFVGGLLSAYYLSGEEIFRKKAVELGVKLLPAFHTPSGIPWALLNMKSGIGRNWPWASGGSSILAEFGTLHLEFMHLSHLSGNPIFAEKVMNIRTVLNKLEKPQGLYPNYLNPSSGQWGQHHVSVGGLGDSFYEYLLKAWLMSDKTDLEAKKMYFDAVQAIETHLIRKSSSGLTYIAEWKGGLLEHKMGHLTCFAGGMFALGADAAPEGMAQHYLELGAEIARTCHESYNRTFMKLGPEAFRFDGGVEAIATRQNEKYYILRPEVMETYMYMWRLTHDPKYRKWAWEAVEALENHCRVNGGYSGLRDVYLLHESYDDVQQSFFLAETLKYLYLIFSDDDLLPLEHWIFNSEAHLLPILPKDKKEVEIREE [MAN1A1]”, for which the “solubility in G1/S (log2)” value with HeLa Kyoto [1] worked out at 0.133. Further, the melting temperature was 55 °C in the data set on HeLa Kyoto [2] (cell cycle stage: G1/S) and 54.7 °C in the data set on HeLa Kyoto [2] (cell cycle stage: mitosis). Moreover, the “solubility change mitosis (log2)” value with HeLa Kyoto [3] was -0.0318. Further, the thermal stability score in the data set on HeLa Kyoto [4] (setting [5]) came to 1.56; in the data set with HeLa Kyoto [4] (cell cycle stage: mitosis), 0.0924.
